Reference: doi:10.1101/2025.10.03.680336 (bioRxiv, 2025)

How the values were obtained:
[1] = target: T1, full length SPD-5-GFP (C. elegans), P91349; assay: mass photometry; conditions: remark: other sources report otherwise
T1 chain: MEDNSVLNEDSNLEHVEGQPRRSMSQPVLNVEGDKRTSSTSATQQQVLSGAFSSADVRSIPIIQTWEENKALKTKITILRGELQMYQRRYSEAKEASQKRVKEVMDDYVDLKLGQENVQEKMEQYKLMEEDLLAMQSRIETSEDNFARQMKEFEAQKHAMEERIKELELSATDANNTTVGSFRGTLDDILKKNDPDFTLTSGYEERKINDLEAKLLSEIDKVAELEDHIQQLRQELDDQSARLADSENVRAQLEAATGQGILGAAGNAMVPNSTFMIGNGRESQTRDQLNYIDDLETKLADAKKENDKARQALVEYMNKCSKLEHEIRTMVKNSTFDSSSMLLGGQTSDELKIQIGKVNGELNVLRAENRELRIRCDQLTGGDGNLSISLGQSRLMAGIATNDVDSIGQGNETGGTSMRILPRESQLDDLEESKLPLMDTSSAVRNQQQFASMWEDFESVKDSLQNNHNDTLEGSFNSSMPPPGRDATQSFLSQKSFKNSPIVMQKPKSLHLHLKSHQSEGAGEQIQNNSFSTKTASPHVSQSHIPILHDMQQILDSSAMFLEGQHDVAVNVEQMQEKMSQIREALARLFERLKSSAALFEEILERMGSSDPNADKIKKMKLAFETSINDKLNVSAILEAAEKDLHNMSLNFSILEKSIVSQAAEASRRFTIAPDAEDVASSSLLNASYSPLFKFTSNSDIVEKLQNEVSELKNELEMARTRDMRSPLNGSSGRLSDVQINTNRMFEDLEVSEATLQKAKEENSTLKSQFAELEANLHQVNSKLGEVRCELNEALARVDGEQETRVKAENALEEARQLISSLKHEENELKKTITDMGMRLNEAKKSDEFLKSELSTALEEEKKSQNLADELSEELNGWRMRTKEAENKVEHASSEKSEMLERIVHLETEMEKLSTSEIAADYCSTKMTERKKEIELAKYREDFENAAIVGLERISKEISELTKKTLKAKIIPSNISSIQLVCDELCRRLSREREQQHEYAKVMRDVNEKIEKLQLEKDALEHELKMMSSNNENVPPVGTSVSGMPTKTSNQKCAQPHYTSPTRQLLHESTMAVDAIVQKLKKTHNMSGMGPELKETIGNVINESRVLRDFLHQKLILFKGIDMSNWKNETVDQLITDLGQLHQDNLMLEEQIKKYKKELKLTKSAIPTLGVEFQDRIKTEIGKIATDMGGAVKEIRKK

[2] = target: the molecule itself; assay: mass photometry
[3] = target: T2, NG-CDK5RAP2-PReM (CDK5RAP2 residues 535-639) (human, UniProt Q96SN8 535-639); assay: fluorescence microscopy of networks formed on mixing purified proteins
T2 sequence (looked up): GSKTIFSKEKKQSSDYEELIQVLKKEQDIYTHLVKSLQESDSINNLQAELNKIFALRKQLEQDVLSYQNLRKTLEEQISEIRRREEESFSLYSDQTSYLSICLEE

[4] = target: T3, NG-fusion of PReMΔH1 (Cnn 462-608) (Drosophila melanogaster, UniProt P54623-2 462-608); assay: as above
T3 sequence (looked up): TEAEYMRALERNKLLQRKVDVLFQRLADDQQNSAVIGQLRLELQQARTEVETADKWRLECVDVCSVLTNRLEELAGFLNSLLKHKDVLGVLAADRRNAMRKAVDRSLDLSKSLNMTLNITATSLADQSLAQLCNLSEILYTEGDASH

[5] = target: the molecule itself; assay: SEC-MALS
[6] = target: the molecule itself; assay: crystal structure

B1: full length SPD-5-GFP, P91349 1-1198 (natural protein)
chain: MEDNSVLNEDSNLEHVEGQPRRSMSQPVLNVEGDKRTSSTSATQQQVLSGAFSSADVRSIPIIQTWEENKALKTKITILRGELQMYQRRYSEAKEASQKRVKEVMDDYVDLKLGQENVQEKMEQYKLMEEDLLAMQSRIETSEDNFARQMKEFEAQKHAMEERIKELELSATDANNTTVGSFRGTLDDILKKNDPDFTLTSGYEERKINDLEAKLLSEIDKVAELEDHIQQLRQELDDQSARLADSENVRAQLEAATGQGILGAAGNAMVPNSTFMIGNGRESQTRDQLNYIDDLETKLADAKKENDKARQALVEYMNKCSKLEHEIRTMVKNSTFDSSSMLLGGQTSDELKIQIGKVNGELNVLRAENRELRIRCDQLTGGDGNLSISLGQSRLMAGIATNDVDSIGQGNETGGTSMRILPRESQLDDLEESKLPLMDTSSAVRNQQQFASMWEDFESVKDSLQNNHNDTLEGSFNSSMPPPGRDATQSFLSQKSFKNSPIVMQKPKSLHLHLKSHQSEGAGEQIQNNSFSTKTASPHVSQSHIPILHDMQQILDSSAMFLEGQHDVAVNVEQMQEKMSQIREALARLFERLKSSAALFEEILERMGSSDPNADKIKKMKLAFETSINDKLNVSAILEAAEKDLHNMSLNFSILEKSIVSQAAEASRRFTIAPDAEDVASSSLLNASYSPLFKFTSNSDIVEKLQNEVSELKNELEMARTRDMRSPLNGSSGRLSDVQINTNRMFEDLEVSEATLQKAKEENSTLKSQFAELEANLHQVNSKLGEVRCELNEALARVDGEQETRVKAENALEEARQLISSLKHEENELKKTITDMGMRLNEAKKSDEFLKSELSTALEEEKKSQNLADELSEELNGWRMRTKEAENKVEHASSEKSEMLERIVHLETEMEKLSTSEIAADYCSTKMTERKKEIELAKYREDFENAAIVGLERISKEISELTKKTLKAKIIPSNISSIQLVCDELCRRLSREREQQHEYAKVMRDVNEKIEKLQLEKDALEHELKMMSSNNENVPPVGTSVSGMPTKTSNQKCAQPHYTSPTRQLLHESTMAVDAIVQKLKKTHNMSGMGPELKETIGNVINESRVLRDFLHQKLILFKGIDMSNWKNETVDQLITDLGQLHQDNLMLEEQIKKYKKELKLTKSAIPTLGVEFQDRIKTEIGKIATDMGGAVKEIRKK
With B1 as the binder, how does the stoichiometry N [1] read?
The stoichiometry N was 2.

B2: full length Cnn-GFP (natural protein, Drosophila melanogaster, UniProt P54623-2 1-1148, looked up)
chain: MDQSKQVLRDYCGDGNGTCASSLKEITLIETVTSFLEENGAAEIDRRVLRKLAEALSKSIDDTSPGALQDVTMENSYASFDVPRPPGGGNSPLPSQGRSVRELEEQMSALRKENFNLKLRIYFLEEGQPGARADSSTESLSKQLIDAKIEIATLRKTVDVKMELLKDAARAISHHEELQRKADIDSQAIIDELQEQIHAYQMAESGGQPVENIAKTRKMLRLESEVQRLEEELVNIEARNVAARNELEFMLAERLESLTACEGKIQELAIKNSELVERLEKETASAESSNANRDLGAQLADKICELQEAQEKLKERERIHEQACRTIQKLMQKLSSQEKEIKKLNQENEQSANKENDCAKTVISPSSSGRSMSDNEASSQEMSTNLRVRYELKINEQEEKIKQLQTEVKKKTANLQNLVNKELWEKNREVERLTKLLANQQKTLPQISEESAGEADLQQSFTEAEYMRALERNKLLQRKVDVLFQRLADDQQNSAVIGQLRLELQQARTEVETADKWRLECVDVCSVLTNRLEELAGFLNSLLKHKDVLGVLAADRRNAMRKAVDRSLDLSKSLNMTLNITATSLADQSLAQLCNLSEILYTEGDASHKTFNSHEELHAATSMAPTVENLKAENKALKKELEKRRSSEGQRKERRSLPLPSQQFDNQSESEAWSEPDRKVSLARIGLDETSNSLAAPEQAISESESEGRTCATRQDRNRNSERIAQLEEQIAQKDERMLNVQCQMVELDNRYKQEQLRCLDITQQLEQLRAINEALTADLHAIGSHEEERMVELQRQLELKNQQIDQLKLAHSTLTADSQITEMELQALQQQMQEIEQLHADSVETLQSQLQKLKLDAVQQLEEHERLHREALERDWVALTTYQEQAQQLLELQRSLDYHQENEKELKQTLVENELATRALKKQLDESTLQASKAVMERTKAYNDKLQLEKRSEELRLQLEALKEEHQKLLQKRSNSSDVSQSGYTSEEVAVPMGPPSGQATTCKQAAAAVLGQRVNTSSPDLGIESDAGRISSVEVSNAQRAMLKTVEMKTEGSASPKAKSEESTSPDSKSNVATGAATVHDCAKVDLENAELRRKLIRTKRAFEDTYEKLRMANKAKAQVEKDIKNQILKTHNVLRNVRSNMENEL
For B2, which “stoichiometry N” value [2] is on record?
The value was 2.

B3: human CDK5RAP2 CM2 (residues 1812-1893) (domain or fragment, UniProt Q96SN8 1812-1893, looked up)
chain: PLHCEQIGEMKAEVTKLHKKLFEQEKKLQNTMKLLQLSKRQEKVIFDQLVVTHKILRKARGNLELRPGGAHPGTCSPSRPGS
Which results are given for B3?
binding result [3]: binds; binding result [4]: binds

B4: MBP-fusion of PReM domain construct Cnn 462-608 (domain or fragment, Drosophila melanogaster, UniProt P54623-2 462-608, looked up)
chain: TEAEYMRALERNKLLQRKVDVLFQRLADDQQNSAVIGQLRLELQQARTEVETADKWRLECVDVCSVLTNRLEELAGFLNSLLKHKDVLGVLAADRRNAMRKAVDRSLDLSKSLNMTLNITATSLADQSLAQLCNLSEILYTEGDASH
B4 was tested. Which “stoichiometry N” value [5] did it give?
Its value is 2.

B5: MBP-fusion of PReM domain construct Cnn 490-608 (domain or fragment, Drosophila melanogaster, UniProt P54623-2 490-608, looked up)
chain: DQQNSAVIGQLRLELQQARTEVETADKWRLECVDVCSVLTNRLEELAGFLNSLLKHKDVLGVLAADRRNAMRKAVDRSLDLSKSLNMTLNITATSLADQSLAQLCNLSEILYTEGDASH
For B5, which “stoichiometry N” value [5] is on record?
Its value is 2.

B6: Cnn 490-579 2A mutant (domain or fragment, Drosophila melanogaster, UniProt P54623-2 490-579, looked up)
chain: DQQNSAVIGQLRLELQQARTEVETADKWRLECVDVCSVLTNRLEELAGFLNSLLKHKDVLGVLAADRRNAMRKAVDRALDLAKSLNMTLN
Does B6 bind [6]?
Result: binds
